In the supplement of paper PMC12764529:
± gives the half width of the 95% confidence interval.

Key:
[1] = folding stability dG unfold from trypsin proteolysis; higher = more stable
How it was run: (§1)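 Unfolding free energy was derived, per protease or combined, by relating Bayesian-fitted K50 values from sequencing counts to a sequence-predicted unfolded-state K50 and a shared folded-state K50. The underlying digests exposed cysteine-free mini-proteins under 80 residues, in a PA-tagged cDNA display construct, to trypsin and chymotrypsin at 11 threefold-diluted concentrations and to a no-protease condition. A filter kept only designs with AlphaFold2 dimer inter-PAE above 15.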

[2] = folding stability dG unfold (combined trypsin and chymotrypsin); higher = more stable
How it was run: as §1

[3] = folding stability dG unfold from chymotrypsin proteolysis; higher = more stable
How it was run: as §1

Sequence	folding stability dG unfold [1]	folding stability dG unfold [2]	folding stability dG unfold [3]
SAGMTVTFTLDFPANGGPITITVYHGDKAEEITVPKNETVTITVDLDPNDGLTIRAHYPDGSYVEFPIGSAG [r5_187_TrMRF]	3.46 ± 0.16 kcal/mol	4.5 ± 0.09 kcal/mol	4.65 ± 0.053 kcal/mol
SAGFSVEVTYNPPTGYLEIRFYNPPPNKPLKKETLEEIARKLLEELGIEGEIVEIKEEGNVYTIKVKIPSAG [r14_556_TrMRF]	4.56 ± 0.19 kcal/mol	4.62 ± 0.084 kcal/mol	4.65 ± 0.068 kcal/mol
SAGGSAGGSAGGGVGIAEISFDPETQTVTIKAYNPETEEITEITIPVTNPLPLDLSDITSAGGSAGGSAGGS [r10_331_TrMRF]	0.477 ± 0.085 kcal/mol	0.725 ± 0.2 kcal/mol	0.858 ± 0.14 kcal/mol
SAGGSAGGSAGGTLEFTFPGEGNLLAKVRIDLGESGNVRIDVYIYDGDTLLAKATFTLNLSAGGSAGGSAGG [r7_79_TrMRF]	4.55 ± 0.12 kcal/mol	5.48 ± 0.13 kcal/mol	5.46 ± 0.11 kcal/mol
SAGGSAENDRFIVRVTIQMRNPGDGEKRTHTIPWFEFEPGKPAEEFAIDIADDFGIDNIDVEVYPLSAGGSA [r15_540_TrROS]	1.35 ± 0.023 kcal/mol	1.57 ± 0.052 kcal/mol	1.68 ± 0.026 kcal/mol
KSKEEQKEQQEEQQKPPPVEIKVEVEVVKSPNGNPYFQFNVEYYDPGDGEPIGEITISVPPDDVDELADEFS [r1_415_TrROS]	1.97 ± 0.4 kcal/mol	2.46 ± 0.71 kcal/mol	2.63 ± 0.25 kcal/mol
SAGGSAGGSGGFLVLEFEIEVDPEDPEKALAVVEALVESLGFEPVLIEVEEDENRVRVRVLLGSAGGSAGGS [r12_731_TrMRF]	2.93 ± 0.099 kcal/mol	3.1 ± 0.13 kcal/mol	3.11 ± 0.13 kcal/mol
SAGGSAGGSAGGKLIVLPVTSDEVFDFGDGPIPVPAGSIVVLEISPDGAKALVFSPEDLSAGGSAGGSAGGS [r10_353_TrMRF]	1.12 ± 0.021 kcal/mol	1 ± 0.087 kcal/mol	0.886 ± 0.065 kcal/mol
SAGGSAGGSAGDNIYVFEIDIKIKPRKDPDGKWQPEIEINIKIKDIKPIPPNDPELKDLLSAGGSAGGSAGG [r11_236_TrROS]	2 ± 0.05 kcal/mol	1.94 ± 0.07 kcal/mol	1.99 ± 0.036 kcal/mol
SAGGMLTGTLVDPVEGIRYTSFYDPSKPSSSITPKPIPPVPPVSLEELAERLRAATGLSREEVLALLESAGG [r13_824_JUSTAS]	1.02 ± 0.022 kcal/mol	0.76 ± 0.072 kcal/mol	0.396 ± 0.13 kcal/mol
SAGGSVTTETDEYFYPDNLFTVAKTTLYVGSGPVEATAVSYPTFTLVNVHYPDGSVDTFLFTLTDDSSAGGS [r16_108_TrMRF]	2.38 ± 0.11 kcal/mol	3.08 ± 0.13 kcal/mol	3.56 ± 0.06 kcal/mol
SAGGSAGGSAGGSGMTTTLLEQREFTLPNGEPVRVTVARFPGGEIVTETEDGVVTTDPLSAGGSAGGSAGGS [r4_111_JUSTAS]	-0.134 ± 0.064 kcal/mol	0.159 ± 0.08 kcal/mol	0.281 ± 0.08 kcal/mol
SAGMIEINNVTPNYVMIKIWNPDNGKKWEIPIQYERDNGKPYSKDKALEEIKDIAKEFYPDFDIEVEPVSAG [r5_293_TrROS]	0.0269 ± 0.15 kcal/mol	0.41 ± 0.25 kcal/mol	0.727 ± 0.14 kcal/mol
SAGGSAGGSGMMLKIEIPVEDPGSEEKAKKIAEELAKKLGLSPKEVKIKIKVIPKLPPEEILNSAGGSAGGS [r12_1066_JUSTAS]	0.471 ± 0.077 kcal/mol	0.582 ± 0.22 kcal/mol	0.531 ± 0.11 kcal/mol
SAMTPETERKLLEAPKTGDVEAVREAAEEIEKEYPGKGLVVTVTVSPLSDGTWEVEVTVELPPNLPELASAG [r14_690_JUSTAS]	0.702 ± 0.12 kcal/mol	0.437 ± 0.38 kcal/mol	0.27 ± 0.097 kcal/mol
SAGGSAGGMTKTEVTVTVEKVPDGTYVVKTTKTTTTTNPDGTLTSSTTTTTKTVTPEELAAVLASAGGSAGG [r6_974_JUSTAS]	3.7 ± 0.15 kcal/mol	3.16 ± 0.11 kcal/mol	2.86 ± 0.044 kcal/mol
SAGGSAGGSRIIFRIPPEFRENMPIEEIVEEFLPPGMPVEIEWERTPDPWYVTVDIEIPPGQLSAGGSAGGS [r12_716_TrROS]	0.364 ± 0.16 kcal/mol	0.334 ± 0.27 kcal/mol	0.325 ± 0.33 kcal/mol
SAGGSAGGSKITIKLIKNGEIVEEKEIEDKKTGKKIKIKAIKKDGKLYLVIEVDGKKYVIPLPSAGGSAGGS [r12_994_TrROS_Hall]	2.02 ± 0.23 kcal/mol	3.57 ± 0.39 kcal/mol	3.93 ± 0.089 kcal/mol
SAGLKVESQTYDPATGTATVTPPLEGVPPDYTITVTDTATGKKTTLPPDGDVTLSNPTGPVTVTLTRPASAG [r14_134_JUSTAS]	0.152 ± 0.038 kcal/mol	0.277 ± 0.074 kcal/mol	0.354 ± 0.093 kcal/mol
SAGGSAMLVFKITIKNPETNETIELEIEAETLEEAKEAIEKLIAELTGKEPTEIKIEVVEIKEEDLSAGGSA [r15_670_TrROS_Hall]	4.09 ± 0.35 kcal/mol	4.42 ± 0.27 kcal/mol	4.47 ± 0.3 kcal/mol
SAGNPVLLKRPFIDPENGEPVYELTLFDPESNIVTTLFFNSDGKVIAVAVAYVPPETDEVDIELSVFDGSAG [r5_747_TrMRF]	1.52 ± 0.053 kcal/mol	1.47 ± 0.062 kcal/mol	1.36 ± 0.099 kcal/mol

Sequence	folding stability dG unfold [1]	folding stability dG unfold [2]	folding stability dG unfold [3]
SAGGSAPPIEIEIDKWERDPENGYVYATVKIKLPGKKIEIPIWMDDPPGQAENQVKMLAENIARQLSAGGSA [r15_979_TrROS]	0.807 ± 0.082 kcal/mol	1.11 ± 0.13 kcal/mol	1.39 ± 0.11 kcal/mol
SPSADAKVRVEPLPGPGYLATLEDGSLVLVHPDGTVIEVTETKVRIRVFTPDKPLLELEIEIPPPAPDEPSA [r9_901_TrMRF]	0.803 ± 0.095 kcal/mol	1.18 ± 0.16 kcal/mol	1.26 ± 0.066 kcal/mol
SAGGSAGGSVPLELELTFKLENGSFIVVKAKIEFNPETPEFKVEVLSVEIFLEPEGKIVSDEDFSAGGSAGG [r6_864_TrMRF]	1.43 ± 0.087 kcal/mol	2.44 ± 0.29 kcal/mol	3.08 ± 0.085 kcal/mol
SAGGSAGGSAKPKVVLVEYDEKTGKFKIVFPDGKELEITGLTPEQIKELAKSLGADYVIIESAGGSAGGSAG [r3_78_TrMRF]	3.38 ± 0.12 kcal/mol	3.83 ± 0.09 kcal/mol	4.06 ± 0.098 kcal/mol
SGPFQFFVKIEYKGKNGKTQERELPINMPPGDFDKFIEEILDDPNLEGADDVEIDVYMAGTGRPQEIEIPSA [r9_97_TrROS]	0.678 ± 0.061 kcal/mol	1.07 ± 0.092 kcal/mol	1.22 ± 0.11 kcal/mol
SAGGSAGGSKKVKVTIEYDKETGVVKVTVEDPETGEKYTVTAKFEFDKNGKLVKVEVVSIEKESAGGSAGGS [r12_791_TrROS_Hall]	2.71 ± 0.14 kcal/mol	3.67 ± 0.11 kcal/mol	3.94 ± 0.11 kcal/mol
SAGGSAGGSAGNMWDQALRAAREAKDQGDEEVVIHFPPNMKNWVKEWAEDLGWPIKIQPTSAGGSAGGSAGG [r11_371_TrROS]	0.128 ± 0.17 kcal/mol	-0.0966 ± 0.19 kcal/mol	0.027 ± 0.25 kcal/mol
SAPEVEVFPGKDNSALVRVVFEFDGYRIEVVRRVPVEALKAGIPLEELPDVEILEVRVVKLPKPRPDELSAG [r14_856_TrMRF]	2.17 ± 0.056 kcal/mol	2.58 ± 0.061 kcal/mol	2.85 ± 0.029 kcal/mol
SAGGEFEVYRVKSPDSVVTVTVLPDRVVVNLTDEKNPKVVPIPYPPGHPPTLEDVLALLKSLGFKVEPSAGG [r13_687_TrMRF]	1.85 ± 0.033 kcal/mol	1.79 ± 0.041 kcal/mol	1.65 ± 0.043 kcal/mol
SAGGSAGGSAKPKPVETVEVTVTGKDGKKYKVTVVYDEKTGKLYVKYNGKIYKVDSLEEALKSAGGSAGGSA [r18_67_TrROS_Hall]	2.44 ± 0.19 kcal/mol	3.86 ± 0.2 kcal/mol	4.12 ± 0.073 kcal/mol
SAGGSAGGSAKIMIPVDTPEEVKDIAEEFASNGNKEVEPHEDGWVSIEFPNGVPIEIWLPKDSAGGSAGGSA [r18_126_TrROS]	-0.558 ± 0.28 kcal/mol	0.0345 ± 0.25 kcal/mol	0.488 ± 0.062 kcal/mol
SAGGSAGGSAGGIKITPDIRELLRQQGKPFSEEEIQGIAKYIAKHFKEKGFEDVTIRIPWSAGGSAGGSAGG [r7_512_TrROS]	0.471 ± 0.17 kcal/mol	0.774 ± 0.14 kcal/mol	0.783 ± 0.2 kcal/mol
SAGGTTTTLTFETEEEAREFAEELREKHPDVVLEVEIRRETRTVTVPGVGEVREVDRVVVTVTLTPASAGGS [r16_828_JUSTAS]	2.03 ± 0.054 kcal/mol	2.89 ± 0.07 kcal/mol	3.27 ± 0.064 kcal/mol
SAGGSAGGSAMTTTSTSTYPDSITTTTTTTVDGTYIITTTTFYPATGTTTTTTTTLPPSLTSAGGSAGGSAG [r3_316_JUSTAS]	2.91 ± 0.093 kcal/mol	2.41 ± 0.048 kcal/mol	1.987 ± 0.011 kcal/mol
SAMDLLRERGYDVEEVTKLRDEVLPNGTIVTLYEVTVRLPDRVITTPIKVSGESEEEAEKLAYETVARESAG [r14_726_JUSTAS]	0.49 ± 0.031 kcal/mol	0.543 ± 0.069 kcal/mol	0.582 ± 0.071 kcal/mol
SAGGSAGGSAGGLGPDTPYATLSVTLTFTVRLKVRDPVTGKEYEIEYDVTLTFTFTVPASAGGSAGGSAGGS [r10_1116_TrMRF]	5.07 ± 0.54 kcal/mol	5.58 ± 0.4 kcal/mol	5.84 ± 0.31 kcal/mol
SAGGSAGGSAGPVKLTLEVPEEEAEELAEALREAGYEVEIERDEETKRLRVTITVDPEALSAGGSAGGSAGG [r11_1043_TrROS_Hall]	1.78 ± 0.095 kcal/mol	2.01 ± 0.12 kcal/mol	2.2 ± 0.056 kcal/mol
SAGGSAGGSAGGDDNDKEPIGEVTVEVIIPPQIPIRIRWDIYKDPPNGNAMMNMDIDIHSAGGSAGGSAGGS [r10_6_TrROS]	0.638 ± 0.12 kcal/mol	0.719 ± 0.22 kcal/mol	0.968 ± 0.12 kcal/mol
SAGGDPVRIFIMSGNGIFPIEIPLDPGEKVEFEMKFNGQEVTITITPGDGEIEIEMPPGFNIMALEPSAGGS [r16_761_TrROS]	1.59 ± 0.086 kcal/mol	1.89 ± 0.11 kcal/mol	2.05 ± 0.038 kcal/mol
SAGGPKIKIEAFPDGTVKITIELPDGVTIVIELKFDPETGTVHAKITLLPKDKPVTFEFTFKIPPDASAGGS [r16_230_TrMRF]	3.34 ± 0.35 kcal/mol	4.29 ± 0.41 kcal/mol	4.34 ± 0.11 kcal/mol
SAGGSMQSVTSYDPNGVTYTTEFLPDEDVVTYTKTTDGTVTTTKVERLDEDGVPVPLSTSTTTLGGSAGGSA [r2_60_JUSTAS]	0.208 ± 0.085 kcal/mol	0.107 ± 0.16 kcal/mol	-0.217 ± 0.29 kcal/mol
